Measured values from US20150258192A1, “COMPOSITIONS AND METHODS FOR PREVENTING OR TREATING CHRONIC LUNG ALLOGRAFT DYSFUNCTION (CLAD) AND IDIOPATHIC PULMONARY FIBROSIS (IPF)” (priority 2014, published 2015).
No end group written: not given here.

What was measured:
Assay in all cases: Kinase Profiling Assay
Type in all cases: biochemical
Conditions in all cases: peptide 100 μM
ALK4(h) = target: T1, ALK4(h) (Homo sapiens, UniProt P36896)
T1 sequence (P36896 24-505): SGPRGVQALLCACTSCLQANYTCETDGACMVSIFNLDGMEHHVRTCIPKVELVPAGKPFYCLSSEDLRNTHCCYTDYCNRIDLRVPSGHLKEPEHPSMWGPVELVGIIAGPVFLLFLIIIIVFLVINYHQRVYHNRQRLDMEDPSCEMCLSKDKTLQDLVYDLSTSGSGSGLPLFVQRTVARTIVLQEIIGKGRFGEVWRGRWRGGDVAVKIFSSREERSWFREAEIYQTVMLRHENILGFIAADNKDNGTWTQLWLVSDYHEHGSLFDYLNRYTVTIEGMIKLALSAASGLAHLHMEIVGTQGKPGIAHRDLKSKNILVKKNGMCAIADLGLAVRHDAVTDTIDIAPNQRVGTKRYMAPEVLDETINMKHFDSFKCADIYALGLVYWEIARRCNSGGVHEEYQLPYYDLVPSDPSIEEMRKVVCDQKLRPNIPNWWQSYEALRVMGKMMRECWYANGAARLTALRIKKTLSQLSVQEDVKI
Procedure, shortened: (§1)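 Each kinase activity was measured in duplicate. Phosphorylation of a positively charged substrate with radiolabeled phosphate from ATP was captured on a negatively charged filter, counted by scintillation and expressed relative to a 100% activity control. MK2 inhibitory peptides were screened for specificity across 266 human kinases.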

ASK1(h) = target: T2, ASK1(h) (Homo sapiens, UniProt Q99683)
T2 sequence (Q99683 1-1374): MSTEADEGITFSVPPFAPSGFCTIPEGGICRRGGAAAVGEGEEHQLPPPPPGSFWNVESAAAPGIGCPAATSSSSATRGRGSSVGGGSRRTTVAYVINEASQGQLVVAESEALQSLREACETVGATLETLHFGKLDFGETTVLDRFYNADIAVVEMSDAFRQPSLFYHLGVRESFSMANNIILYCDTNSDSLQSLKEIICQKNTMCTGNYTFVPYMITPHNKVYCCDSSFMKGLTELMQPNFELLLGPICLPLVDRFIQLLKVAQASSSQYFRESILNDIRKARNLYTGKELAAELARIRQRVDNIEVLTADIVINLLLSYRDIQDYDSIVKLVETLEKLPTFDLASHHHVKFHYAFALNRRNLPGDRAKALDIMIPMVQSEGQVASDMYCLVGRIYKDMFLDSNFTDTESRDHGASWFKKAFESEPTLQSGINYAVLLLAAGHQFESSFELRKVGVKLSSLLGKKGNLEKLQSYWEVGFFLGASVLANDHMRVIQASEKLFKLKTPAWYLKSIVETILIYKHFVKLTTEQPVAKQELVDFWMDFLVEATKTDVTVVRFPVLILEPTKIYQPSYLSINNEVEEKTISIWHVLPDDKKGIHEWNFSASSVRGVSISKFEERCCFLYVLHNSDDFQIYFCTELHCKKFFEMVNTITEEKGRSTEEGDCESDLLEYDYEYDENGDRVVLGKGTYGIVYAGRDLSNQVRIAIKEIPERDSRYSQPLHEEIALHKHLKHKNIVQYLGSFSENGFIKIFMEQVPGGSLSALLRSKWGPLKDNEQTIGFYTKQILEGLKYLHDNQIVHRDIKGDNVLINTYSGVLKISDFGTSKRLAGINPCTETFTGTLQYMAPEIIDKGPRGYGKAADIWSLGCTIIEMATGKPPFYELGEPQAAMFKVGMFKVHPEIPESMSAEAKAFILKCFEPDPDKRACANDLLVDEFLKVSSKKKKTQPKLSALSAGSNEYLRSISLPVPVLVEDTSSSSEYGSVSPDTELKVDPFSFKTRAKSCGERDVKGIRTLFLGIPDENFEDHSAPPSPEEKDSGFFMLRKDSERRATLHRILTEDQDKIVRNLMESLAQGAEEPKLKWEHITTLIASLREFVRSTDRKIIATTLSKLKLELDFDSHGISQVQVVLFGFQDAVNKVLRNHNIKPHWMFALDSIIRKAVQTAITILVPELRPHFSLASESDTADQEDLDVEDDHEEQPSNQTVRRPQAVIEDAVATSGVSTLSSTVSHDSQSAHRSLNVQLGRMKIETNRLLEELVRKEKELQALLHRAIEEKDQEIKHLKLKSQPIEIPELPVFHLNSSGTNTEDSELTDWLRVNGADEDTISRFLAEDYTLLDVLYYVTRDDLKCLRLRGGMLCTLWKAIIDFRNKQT
Procedure, shortened: as §1

CDK5/p35(h) = CDK5/p35(h) (Homo sapiens, UniProt Q00535)
CDK5/p35(h), sequence (Q00535 whole entry): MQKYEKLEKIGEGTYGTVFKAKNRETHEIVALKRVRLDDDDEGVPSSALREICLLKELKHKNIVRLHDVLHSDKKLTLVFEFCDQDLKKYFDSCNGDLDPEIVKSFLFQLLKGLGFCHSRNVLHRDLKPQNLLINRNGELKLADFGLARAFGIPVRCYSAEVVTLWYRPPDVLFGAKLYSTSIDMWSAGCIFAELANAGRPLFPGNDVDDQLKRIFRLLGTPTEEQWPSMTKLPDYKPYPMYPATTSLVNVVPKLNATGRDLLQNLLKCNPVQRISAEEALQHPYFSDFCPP
CDK5/p35(h), sequence (Q15078 whole entry partner): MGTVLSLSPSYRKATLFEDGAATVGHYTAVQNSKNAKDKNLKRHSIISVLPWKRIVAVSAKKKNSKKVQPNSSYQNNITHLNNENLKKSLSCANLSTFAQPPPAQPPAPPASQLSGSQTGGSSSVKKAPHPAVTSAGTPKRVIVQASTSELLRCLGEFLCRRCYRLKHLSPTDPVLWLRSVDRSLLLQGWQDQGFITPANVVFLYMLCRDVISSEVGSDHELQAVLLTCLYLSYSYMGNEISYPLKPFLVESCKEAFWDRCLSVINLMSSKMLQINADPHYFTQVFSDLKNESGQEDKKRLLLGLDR
Procedure, shortened: as §1

EGFR(T790M, L858R)(h) = EGFR(T790M, L858R)(h) (Homo sapiens, UniProt P00533, L858R/T790M)
Procedure, shortened: as §1

TAK1(h) = target: T3, TAK1(h) (Homo sapiens, UniProt O43318)
T3 construct: purchased Millipore
T3 sequence (O43318 1-303 limits assumed): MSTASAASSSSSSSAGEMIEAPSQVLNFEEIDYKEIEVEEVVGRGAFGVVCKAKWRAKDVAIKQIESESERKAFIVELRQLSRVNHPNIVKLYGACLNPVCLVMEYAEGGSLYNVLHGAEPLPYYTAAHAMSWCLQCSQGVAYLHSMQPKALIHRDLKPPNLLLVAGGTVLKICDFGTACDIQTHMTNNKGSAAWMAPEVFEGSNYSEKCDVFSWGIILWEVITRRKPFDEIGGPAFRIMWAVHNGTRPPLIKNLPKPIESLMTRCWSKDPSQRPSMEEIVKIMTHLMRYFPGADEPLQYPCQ
Procedure, shortened: as §1

Sequence	% activity (ALK4(h)) [%]	% activity (ASK1(h)) [%]	% activity (CDK5/p35(h)) [%]	% activity (EGFR(T790M, L858R)(h)) [%]	% activity (TAK1(h)) [%]
FAKLAARLYRKALARQLGVAA [MMI-0300]	140	80	79	85	122
HRRIKAWLKKIKALARQLGVAA (Mammal) [MMI-0500]	81	-4	59	53	
KAFAKLAARLYRKALARQLGVAA [MMI-0400]	130	69	76	78	177
YARAAARQARAKALARQLGVAA [MMI-0100]	124				
YARAAARQARAKALNRQLGVA (Mammal) [MMI-0200]	152	101	92	108	124
